Data taken from patent publication US20240270826A1 (NATIONAL RESEARCH COUNCIL OF CANADA, published 2024).

B1: NRCoV2-18 VHH-Fc (Fc fusion)
chain: EVQLVESGGGLVQAGGSLRLSCVASGITISGYNMAWWRQTRGKQTERVAFINSGGSTTYSDSVKGRFTISRDNGKNTAYLQMNSLNAEDTADYFCSLHTSHDYWGQGTQVTVSS
notes: bivalent VHH-Fc
B2: NRCoV2-SR13 VHH-Fc (Fc fusion)
chain: EVQLVESGGGLVTTGGSLRLSCATSGSRFGSKHMAWYRQAPGKQRDLVAAISSGGSTHYGSSVKGRFTISRDNAKSTVYLQMNSLNPEDTAVFYCNMGGWDYRSNTYIPGSRSDYWGQGTQVTVSS
notes: bivalent VHH-Fc
B3: NRCoV2-11 VHH-Fc (Fc fusion)
chain: EVQLVSSGGGLVQPGGSLRLSCAASGSSLDSYSVSWFRQAPGKEREWISFISRYYSSTYYTDSVKGRFTTSRDGDQKTVHLQMNSLKPEDTAVYYCAARSRDFSSPFSATDTYTSWGQGTQVTVSS
notes: bivalent VHH-Fc
B4: NRCoV2-MRed04 VHH-Fc (Fc fusion)
chain: EVQLVESGGGLVQPGRSLRLSCAASGNSFSISTMGWFRQAPGKERELVASIWSDTTTSYADSVKGRFTISTDNTRTKVYLQMSSLNPEDTAVYYCAADRGFVVRGQYDYWGQGTQVTVSS
notes: bivalent VHH-Fc
B5: NRCoV2-07 VHH-Fc (Fc fusion)
chain: QVQLVQSGGGLVQPGGSLRLSCAASGVTLDYYAIGWFRQAPGKEREAVSCISSNGRRNHYVASVRGRFTISRDNAKSTVYLQMNSLKPEDTAVYYCAAVQDVHGDNYYCTSPNEYNVWGQGTQVTVSS
notes: bivalent VHH-Fc
B6: NRCoV2-SR01 VHH-Fc (Fc fusion)
chain: EVQLVQSGGGSVQAGGSLRLSCVASGFTFDNYAIGWFRQAPGKEREGVSCISGNGGVTIYADSVKGRFTISRDNAKNLVYLQMNSLKPEDTAVYYCAATGIRSTWSVYGCSRLAGPYDYWGQGTQVTVSS
notes: bivalent VHH-Fc
B7: NRCoV2-20 VHH-Fc (Fc fusion)
chain: EVQLQQSGGGLVQPGGSLRLSCAASGRTFSNYVVGWFRQAPQAPGKDHEFVAVISGSDTETYYADSVKGRFTISRDNAKNTVYLQMNSLKPEDTAVYYCAADRGMSYYYTRATEYYYWGQGTQVTVSS
notes: bivalent VHH-Fc
B8: NRCoV2-SR02 VHH-Fc (Fc fusion)
chain: EVQLVDSGGGLVQAGGSLRLSCTASEFTLNYYSIGWFRQSPGKEREGVSCIRYSGGGIDYADSVKGRFTISRDNAKNTVYLTMNSLKPEDTAVYYCAADRLYSRACPTAGGRNYWGQGTQVTVSS
notes: bivalent VHH-Fc
B9: NRCoV2-1d VHH-Fc (Fc fusion)
chain: EVQLVESGGGSVQPGGSLRLSCAASGSTLDYYAIGWFRQAPGKEREWVSSVSSSDGNTLYADSVKGRFTISRDNAKNTVYLQMNSLKAEDTAVYVCAADYSMRPFAVGRWHRDYEYWGQGTQVTVSS
notes: bivalent VHH-Fc
B10: NRCoV2-06 VHH (VHH)
VHH: EVQLVQSGGGLVQAGESLRLSCAASVSTFSSYAMGWYRQAPGKQRELVASIGFVGATYYIDSVKGRFTISRDNAKKTAYLQMNDLKPDDTAVYYCNARHYGGSEYWGQGTQVTVSS
B11: NRCoV2-07 VHH (VHH)
VHH: B5 chain
B12: NRCoV2-10 VHH (VHH)
VHH: QLQLQESGGGLVQPGGSLTLSCAASGNTFSRSNMHWYRQAPGAQREWVAAISSRGISTYAYSAKGRFTISRDNAKNTVSLQMNSLKPEDTAVYYCYAADDLGDYWGQGTQVTVSS
B13: NRCoV2-04 VHH (VHH)
VHH: AVQLVDSGGGLVQPGGSLRLSCAASGSPFSNVVMAWYRQAPGKQRERVAFISGGGIADYIMSVKGRFTISRDNAKNTVYLQMNSLKPEDTAVYYCWSSYESTWGQGTQVTVSS
B14: NRCoV2-14 VHH (VHH)
VHH: EVQLVSSGGGLVQAGGSLRLSCEASGTTFSHYAVGWYRQAPGKQREWVASISVFGSTTYGGSVAGRFTISRDNDKNTVDLQMNSLKPEDTAVYYCHAVNADIGGDYWGQGTQVTVSS
B15: NRCoV2-05 VHH (VHH)
VHH: EVKLVQSGGGLVQPGGSLRLSCAASGFIFSNYAMNWVRQAPGKGLEWVSGINSGGGDTRYADSVKGRFTVSRDNAKNTLYLQMNSLKPEDTGVYYCSKGPVSSYYGSGYDYRGQGTQVTVSS
B16: NRCoV2-15 VHH (VHH)
VHH: EVQLVSSGGGLVEAGGSLRLSCIASGSTSGRNTMGWFRQAPGKQREWVAIVSTSGATNYAGSVKGRFTLSRDNAKNAVYLQMNNLKPEDTAVYYCYAAYGGGGDYWGQGTQVTVSS
B17: NRCoV2-03 VHH (VHH)
VHH: EVQLVSSGGGLVQAGGSLRLSCTASGITFSYYAMGWYRQAPGQPRELVASMSNMDSTIYADSVKGRFTISRDNAKTTIYLQMNNLKPEDTAVYFCNIYGPTYSTRRNEYWGQGTQVTVSS
B18: NRCoV2-06 VHH (VHH)
VHH: B10 VHH
B19: NRCoV2-10 VHH (VHH)
VHH: B12 VHH
B20: NRCoV2-04 VHH (VHH)
VHH: B13 VHH
B21: NRCoV2-05 VHH (VHH)
VHH: B15 VHH
B22: NRCoV2-1d VHH (VHH)
VHH: B9 chain

Biological target: T1, SARS-CoV-2 S2 (aa686-1208) (Wuhan) (SARS-CoV-2 Wuhan, UniProt P0DTC2 686-1208)
T1 construct: NRC; FLAG, 6xHis tags
Test: ELISA

Row | Binder | binding result
1 | B1 | no binding (tested: 13 nM)
2 | B2 | no binding (tested: 13 nM)
3 | B3 | no binding (tested: 13 nM)
4 | B4 | no binding (tested: 13 nM)
5 | B5 | no binding (tested: 13 nM)
6 | B6 | no binding (tested: 13 nM)
7 | B7 | no binding (tested: 13 nM)
8 | B8 | no binding (tested: 13 nM)
9 | B9 | no binding (tested: 13 nM)

Biological target: SARS-CoV-2 S1-NTD (aa16-305) (SARS-CoV-2 Wuhan, UniProt P0DTC2 16-305)
Test: ELISA

Row | Binder | binding result
10 | B1 | no binding (tested: 13 nM)
11 | B3 | no binding (tested: 13 nM)
12 | B4 | no binding (tested: 13 nM)
13 | B5 | no binding (tested: 13 nM)
14 | B7 | no binding (tested: 13 nM)
15 | B9 | no binding (tested: 13 nM)

Biological target: T2, SARS-CoV-2 spike trimer S (Wuhan, SmT1) (SARS-CoV-2 Wuhan)
T2 construct: extracellular domain
Test: SPR, antigen on chip

Row | Binder | Kd [nM] | koff [s⁻¹] | kon [M⁻¹ s⁻¹]
16 | B10 | 155 | 0.00469 | 30200
17 | B11 | 1.15 | 0.000403 | 350000
18 | B12 | 0.192 | 9.27e-05 | 483000
19 | B13 | 10 | 0.0198 | 1.97e+06
20 | B14 | 3.1 | 0.00164 | 528000
21 | B15 | 1.72 | 0.00743 | 4.33e+06
22 | B16 | 0.313 | 0.000221 | 706000

Biological target: T3, SARS-CoV-2 S1 (aa16-685) (Wuhan) (SARS-CoV-2 Wuhan, UniProt P0DTC2 16-685)
T3 construct: NRC; FLAG, 6xHis tags
Test: SPR, antigen on chip

Row | Binder | Kd [nM] | koff [s⁻¹] | kon [M⁻¹ s⁻¹]
23 | B10 | 129 | 0.0133 | 104000
24 | B11 | 1.02 | 0.000308 | 301000
25 | B12 | 0.213 | 9.54e-05 | 448000
26 | B13 | 11.2 | 0.018 | 1.61e+06
27 | B14 | 3.49 | 0.00112 | 319000
28 | B15 | 2 | 0.00806 | 4.03e+06
29 | B16 | 0.333 | 0.000225 | 675000

Biological target: T1, SARS-CoV-2 S2 (aa686-1208) (Wuhan)
Test: SPR, antigen on chip

Row | Binder | binding result
30 | B10 | no binding
31 | B11 | no binding
32 | B12 | no binding
33 | B13 | no binding
34 | B14 | no binding
35 | B15 | no binding
36 | B16 | no binding

Biological target: SARS-CoV-2 S1-RBD fused to human Fc (S1-RBD-Fc) (SARS-CoV-2 Wuhan; human)
Test: SPR, antigen on chip

Row | Binder | Kd [nM] | koff [s⁻¹] | kon [M⁻¹ s⁻¹]
37 | B10 | 69.9 | 0.00415 | 59400
38 | B11 | 0.894 | 0.000284 | 318000
39 | B12 | 0.266 | 9.32e-05 | 351000
40 | B13 | 12.5 | 0.0192 | 1.53e+06
41 | B14 | 3.61 | 0.000944 | 261000
42 | B15 | 2.33 | 0.00585 | 2.51e+06
43 | B16 | 0.342 | 0.000233 | 682000

Biological target: T4, SARS-CoV-2 S on CHO-S cells (SARS-CoV-2, UniProt P0DTC2 14-1273)
T4 construct: whole, on cells
Test: flow cytometry, CHO-S cells

Row | Binder | Bmax | EC50 [nM]
44 | B1 | 18300 | 0.9
45 | B2 | 17800 | 7
46 | B3 | 18200 | 4.3
47 | B4 | 14900 | 4.2
48 | B5 | 10600 | 1.1
49 | B6 | 15400 | 6.6
50 | B7 | 12100 | 0.7
51 | B8 | 14400 | 1.2
52 | B9 | 13800 | 1.1

Biological target: Human SARS-CoV-2_Wuhan S (SmT1) (SARS-CoV-2 (Wuhan), UniProt P0DTC2 14-1208)
Test: tandem SPR, immobilized S, orientation 1: VHH alone

Row | Binder | End 1st inj (RU)
53 | B17 | 18.1
54 | B18 | 38.5
55 | B19 | 9.6
56 | B20 | 41.4
57 | B21 | 36.9
58 | B22 | 26.3
